We go through 1 molecule from paper PMC9649601 (2022).

For orientation: Kd means the equilibrium constant for the complex coming apart.

The assay addresses ubiquitin conjugating enzyme E2 I (UBE2I), recombinant (UniProt P63279 1-158). Briefly: ITC.

Chain of ubiquitin conjugating enzyme E2 I (UBE2I), recombinant (P63279 whole entry): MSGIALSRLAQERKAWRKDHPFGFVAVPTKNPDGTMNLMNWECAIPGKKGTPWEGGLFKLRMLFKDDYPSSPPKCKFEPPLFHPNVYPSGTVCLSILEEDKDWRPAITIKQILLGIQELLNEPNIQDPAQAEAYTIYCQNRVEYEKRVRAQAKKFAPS

B1: lamin A (LMNA), wild type, recombinant (natural protein)
chain: METPSQRRATRSGAQASSTPLSPTRITRLQEKEDLQELNDRLAVYIDRVRSLETENAGLRLRITESEEVVSREVSGIKAAYEAELGDARKTLDSVAKERARLQLELSKVREEFKELKARNTKKEGDLIAAQARLKDLEALLNSKEAALSTALSEKRTLEGELHDLRGQVAKLEAALGEAKKQLQDEMLRRVDAENRLQTMKEELDFQKNIYSEELRETKRRHETRLVEIDNGKQREFESRLADALQELRAQHEDQVEQYKKELEKTYSAKLDNARQSAERNSNLVGAAHEELQQSRIRIDSLSAQLSQLQKQLAAKEAKLRDLEDSLARERDTSRRLLAEKEREMAEMRARMQQQLDEYQELLDIKLALDMEIHAYRKLLEGEEERLRLSPSPTSQRSRGRASSHSSQTQGGGSVTKKRKLESTESRSSFSQHARTSGRVAVEEVDEEGKFVRLRNKSNEDQSMGNWQIKRQNGDDPLLTYRFPPKFTLKAGQVVTIWAAGAGATHSPPTDLVWKAQNTWGCGNSLRTALINSTGEEVAMRKLVRSVTVVEDDEDEDGDDLLHHHHGSHCSSSGDPAEYNLRSRTVLCGTCGQPADKASASGSGAQVGGPISSGSSASSVTVTRSYRSVGGSGGGSFGDNLVTRSY
B1: the Kd came to 373 nM.
